Laboratory results taken from US20220017574A1 (Janssen / Centocor, published 2022).

Tests used:
Experiment in all cases: sandwich ELISA: antibody coated at 1 µg/ml, purified F protein titrated (after 4 weeks at 4 °C), detection with biotinylated CR9506
[1] = target: T1, control pre-fusion F protein RSV150042 (respiratory syncytial virus subgroup A, UniProt P03420 27-109; P03420 137-513)
T1 construct: Control protein described in WO2017/174568; also called PRPM

[2] = target: T2, pre-fusion RSV F protein RSV180305 (respiratory syncytial virus subgroup A …, UniProt P12568 27-109; P03420 137-513)
T2 construct: Soluble F ectodomain; also called RSV pre-F (RSV180305)

[3] = target: T3, pre-fusion RSV F protein RSV172527 (respiratory syncytial virus subgroup A …, UniProt P12568 27-109; P03420 137-513)
T3 construct: Soluble F ectodomain
T3 chain 1: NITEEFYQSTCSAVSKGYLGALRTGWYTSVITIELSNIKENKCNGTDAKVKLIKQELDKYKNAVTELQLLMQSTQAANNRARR
T3 chain 2: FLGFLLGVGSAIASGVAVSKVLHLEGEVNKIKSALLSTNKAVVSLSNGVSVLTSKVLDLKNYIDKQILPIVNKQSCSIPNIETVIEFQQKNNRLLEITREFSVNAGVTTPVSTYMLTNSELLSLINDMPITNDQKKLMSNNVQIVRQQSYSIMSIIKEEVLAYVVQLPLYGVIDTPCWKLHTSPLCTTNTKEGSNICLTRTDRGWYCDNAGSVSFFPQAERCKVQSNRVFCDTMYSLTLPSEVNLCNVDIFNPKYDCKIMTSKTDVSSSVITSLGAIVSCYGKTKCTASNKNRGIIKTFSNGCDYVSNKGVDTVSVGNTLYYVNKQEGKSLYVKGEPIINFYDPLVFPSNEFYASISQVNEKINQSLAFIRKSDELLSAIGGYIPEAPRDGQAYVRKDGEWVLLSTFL

Measured: binding result

B1: monoclonal antibody CR9506 (antibody, human IgG1, kappa, V domains shown)
VH: EVQLVQSGAEVKKPGSSVKVSCKASGGTFSRSLITWVRQAPGQGLEWMGEISLVFGSAKNAQKFQGRVTITADESTSTAHMEMISLKHEDTAVYYCAAHQYGSGTHNNFWDESELRFDLWGQGTLVTVSS
VL: DIVMTQSPSSLSASVGDRVTIACRASQSIGTYLNWYQQKPGKAPKLLIYAASSLQSGVPSRFSGSGSGTHFTLAISSLQAEDFATYSCQQSYTIPYTFGQGTKLEIKR
notes: In the ELISA, CR9506 was coated as a capture antibody and also used biotinylated for detection; also called Mab CR9506
binds: all assays above
